The target of test [1] is Recombinant human TRIM21 protein, TRIM21-his (Sinobiological #18010-H07B) (human) (UniProt P19474). Kind of test: competition ELISA, TRIM21-his coated, antibody in excess (20 µg/ml), competitor biotinylated Fc-CLEC1 in dose response.
Test [2] shares this target. As to the kind of experiment: antagonist assay of FIG. 6A against a control antibody; format not stated; competitor CLEC-1.
Test [3] addresses T1, Recombinant human TRIM21 protein, TRIM21-his (Sinobiological #18010-H07B) (human, UniProt P19474 1-475).
T1 construct: Bought, produced in baculovirus; coated on ELISA plates or immobilised on a CM5 chip; not shown: his tag
Kind of test: ELISA, TRIM21-his coated, biotinylated Fc in dose response (FIG. 4A). From the text:
(§1) Plate was saturated with superblock buffer (#37515, Thermofisher).

For test [4], the target named is T2, endogenous TRIM21 from whole cell extracts (RAJI, MoDC, HPB-ALL cells) (human, UniProt P19474 1-475).
T2 construct: Endogenous cellular protein of human cell lines and monocyte derived dendritic cells, not a recombinant construct; also called TRIM21 E3 Ubiquitin-protein Ligase; cellular endogenous TRIM-21
T2 sequence (P19474 whole entry): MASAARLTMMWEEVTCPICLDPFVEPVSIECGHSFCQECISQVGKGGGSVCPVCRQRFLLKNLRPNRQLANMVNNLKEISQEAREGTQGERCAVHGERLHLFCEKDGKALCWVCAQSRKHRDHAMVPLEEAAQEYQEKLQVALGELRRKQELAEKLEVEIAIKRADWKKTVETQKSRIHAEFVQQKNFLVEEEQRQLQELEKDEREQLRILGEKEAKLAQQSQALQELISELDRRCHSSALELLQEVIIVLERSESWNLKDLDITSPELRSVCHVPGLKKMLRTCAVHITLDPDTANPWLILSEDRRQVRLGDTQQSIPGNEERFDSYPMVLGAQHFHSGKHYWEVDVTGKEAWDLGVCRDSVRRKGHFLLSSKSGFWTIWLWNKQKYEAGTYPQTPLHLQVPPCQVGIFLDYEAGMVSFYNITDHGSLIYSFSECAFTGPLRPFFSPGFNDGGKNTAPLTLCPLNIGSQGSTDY
As to the kind of experiment: co-immunoprecipitation from RAJI whole cell extract, anti-TRIM21 Western blot (FIG. 3A); supernatant not depleted of TRIM21 (FIG. 3B). From the text:
FIG. 3: Co-immunoprecipitation of TRIM21 with CLEC-1A.
The experiment was repeated using Monocyte derived Dendritic Cells (MoDC) protein extracts as starting endogenous protein mix.
In general terms: A western blot detects proteins with antibodies after separation by electrophoresis.

Test [5] has as its target T1, Recombinant human TRIM21 protein, …. As to the kind of experiment: ELISA, TRIM21-his coated, biotinylated Fc-CLEC1 in dose response, streptavidin-peroxidase.
Text: as §1
On the technique in general: ELISA stands for enzyme-linked immunosorbent assay.

Test [6] has the same target. As to the kind of experiment: ELISA, TRIM21-his coated, biotinylated His-CLEC1 in dose response, streptavidin-peroxidase.

Sequence of Recombinant human TRIM21 protein, TRIM21-his (Sinobiological #18010-H07B) (human) (P19474 whole entry): as above
T1 sequence (P19474 whole entry): as above

Regarding “anti-TRIM21 antibody sc-25351 (Santacruz)”, the percent decrease of the Fc-CLEC1/TRIM21 interaction in test [1] came to 50%.

Regarding “anti-TRIM21 antibody PA5-22294 (Fisher / Invitrogen)”, in test [1], the percent decrease of the Fc-CLEC1/TRIM21 interaction amounted to 50%.

Turning to anti-TRIM21 antibody Fisher PA5-22295, the percent reduction of the binding between CLEC-1 and TRIM21 in test [2] came to 65%.

In the case of “anti-TRIM21 antibody MAB6219 (Biotechne)”, the percent decrease of the Fc-CLEC1/TRIM21 interaction in test [1] is 50%.

For the molecule anti-TRIM21 antibody PA5-18147 (Fisher), the percent decrease of the Fc-CLEC1/TRIM21 interaction in test [1] came to 50%.

Take “anti-TRIM21 antibody MAB62191 (Biotechne)”: the percent decrease of the Fc-CLEC1/TRIM21 interaction in test [1] is 50%.

B1: Fc only (human IgG1-E3 Fc control) (other, UniProt P01857-1 104-330, looked up)
chain: DKTHTCPPCPAPPVAGGPSVFLFPPKPKDTLMISRTPEVTCVVVDVSHEDPEVKFNWYVDGVEVHNAKTKPREEQYNSTYRVVSVLTVLHQDWLNGKEYKCKVSNKGLPSSIEKTISKAKGQPREPQVYTLPPSRDELTKNQVSLTCLVKGFYPSDIAVEWESNGQPENNYKTTPPVLDSDGSFFLYSKLTVDKSRWQQGNVFSCSVMHEALHNHYTQKSLSLSPGK
modifications: biotinylated in the ELISA (sites not given)
notes: domain: Fc; also called Fc alone; Fc-biot control
On to B1, for which the binding result in test [3] is given as “no binding (tested: 30 µg/ml)”; in test [4], “no binding”.

B2: Soluble Clec1-human IgG Fc chimera (Fc-Clec-1) (Fc fusion)
chain: DKTHTCPPCPAPPVAGGPSVFLFPPKPKDTLMISRTPEVTCVVVDVSHEDPEVKFNWYVDGVEVHNAKTKPREEQYNSTYRVVSVLTVLHQDWLNGKEYKCKVSNKGLPSSIEKTISKAKGQPREPQVYTLPPSRDELTKNQVSLTCLVKGFYPSDIAVEWESNGQPENNYKTTPPVLDSDGSFFLYSKLTVDKSRWQQGNVFSCSVMHEALHNHYTQKSLSLSPGKQYYQLSNTGQDTISQMEERLGNTSQELQSLQVQNIKLAGSLQHVAEKLCRELYNKAGAHRCSPCTEQWKWHGDNCYQFYKDSKSWEDCKYFCLSENSTMLKINKQEDLEFAASQSYSEFFYSYWTGLLRPDSGKAWLWMDGTPFTSELFHIIIDVTSPRSRDCVAILNGMIFSKDCKELKRCVCERRAGMVKPESLHVPPETLGEGD
modifications: biotinylated in the ELISA experiments (sites not given)
notes: domain: Fc; also called Fc-CLEC-1A; Fc-CLEC1A
Turning to B2, the EC50 in test [5] was 15 µg/mL.

B3: His-CLEC1 (Biotechne #1704-CL) (receptor)
chain: QYYQLSNTGQDTISQMEERLGNTSQELQSLQVQNIKLAGSLQHVAEKLCRELYNKAGAHRCSPCTEQWKWHGDNCYQFYKDSKSWEDCKYFCLSENSTMLKINKQEDLEFAASQSYSEFFYSYWTGLLRPDSGKAWLWMDGTPFTSELFHIIIDVTSPRSRDCVAILNGMIFSKDCKELKRCVCERRAGMVKPESLHVPPETLGEGD
modifications: biotinylated in the ELISA experiments (sites not given)
notes: Bought recombinant protein produced in NS0 cells; also called His-CLEC1A; His-CLEC-1A; not shown: His tag
In the case of B3, the EC50 in test [6] is 13 µg/mL.

What is called EC50 is the concentration needed to bring the measured effect to its halfway point.

Values taken from US20250026839A1 (OSE IMMUNOTHERAPEUTICS, published 2025).
